The pEC50 is the EC50 on a negative log10 scale, so that one unit is a factor of ten.

Assay [1] has as its target E9A. As to the kind of experiment: flow cytometry on CHO-K1 transfectants, right sub-column.
The target of assay [2] is F28A. The assay is described as above.
The target in assay [3] is G16A. Described as above.
In assay [4] the target is G89A. The assay is described as above.
In assay [5] the target is H36A. Described as above.
Assay [6] addresses I46A. The assay is described as above.
Assay [7] addresses K17A. Described as above.
The target in assay [8] is K31A. The description is as above.
Assay [9] addresses N88A. Described as above.
The target in assay [10] is Q15A. The description is as above.
Assay [11] concerns the target Q41A. The assay is described as above.
The target in assay [12] is S63A. The description is as above.
In assay [13] the target is W13A. The description is as above.
Assay [14] has as its target Macaca mulatta CD27 (mmCD27) (Macaca mulatta (rhesus) / Macaca fascicularis (cynomolgus)). In words: flow cytometry MFI, CD4+ T cells in rhesus peripheral blood, n=4.

pEC50: −log10 of the molar value.

1F5-hIgG1 (antibody), sequence (VH): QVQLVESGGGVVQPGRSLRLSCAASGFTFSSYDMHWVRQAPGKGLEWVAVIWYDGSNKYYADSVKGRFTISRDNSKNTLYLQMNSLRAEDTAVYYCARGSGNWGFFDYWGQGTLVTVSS
1F5-hIgG1 (antibody), sequence (VL): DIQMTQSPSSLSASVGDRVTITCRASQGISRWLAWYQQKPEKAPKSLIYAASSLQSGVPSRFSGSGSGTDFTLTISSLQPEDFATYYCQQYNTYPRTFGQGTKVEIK
N88A, sequence (receptor chain, as listed by the source N88A N88A limits assumed): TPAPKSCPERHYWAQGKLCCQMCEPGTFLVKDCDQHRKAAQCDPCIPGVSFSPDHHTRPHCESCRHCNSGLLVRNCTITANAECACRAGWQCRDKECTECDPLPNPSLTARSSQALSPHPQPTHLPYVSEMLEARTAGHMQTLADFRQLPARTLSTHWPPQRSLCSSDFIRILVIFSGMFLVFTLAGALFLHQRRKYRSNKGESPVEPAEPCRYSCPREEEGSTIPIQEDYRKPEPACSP
W13A, sequence (receptor chain, as listed by the source W13A W13A limits assumed): as the sequence (receptor chain, as listed by the source N88A N88A limits assumed) above, with W13A, A88N counted along it
K17A, sequence (receptor chain, as listed by the source K17A K17A limits assumed): as the sequence (receptor chain, as listed by the source N88A N88A limits assumed) above, with K17A, A88N counted along it
G16A, sequence (receptor chain, as listed by the source G16A G16A limits assumed): as the sequence (receptor chain, as listed by the source N88A N88A limits assumed) above, with G16A, A88N counted along it
Q41A, sequence (receptor chain, as listed by the source Q41A Q41A limits assumed): as the sequence (receptor chain, as listed by the source N88A N88A limits assumed) above, with Q41A, A88N counted along it
S63A, sequence (receptor chain, as listed by the source S63A S63A limits assumed): as the sequence (receptor chain, as listed by the source N88A N88A limits assumed) above, with S63A, A88N counted along it
K31A, sequence (receptor chain, as listed by the source K31A K31A limits assumed): as the sequence (receptor chain, as listed by the source N88A N88A limits assumed) above, with K31A, A88N counted along it
E9A, sequence (receptor chain, as listed by the source limits assumed): as the sequence (receptor chain, as listed by the source N88A N88A limits assumed) above, with E9A, A88N counted along it
H36A, sequence (receptor chain, as listed by the source H36A H36A limits assumed): as the sequence (receptor chain, as listed by the source N88A N88A limits assumed) above, with H36A, A88N counted along it
Q15A, sequence (receptor chain, as listed by the source Q15A Q15A limits assumed): as the sequence (receptor chain, as listed by the source N88A N88A limits assumed) above, with Q15A, A88N counted along it
G89A, sequence (receptor chain, as listed by the source G89A G89A limits assumed): as the sequence (receptor chain, as listed by the source N88A N88A limits assumed) above, with A88N, G89A counted along it
Macaca mulatta CD27 (mmCD27) (Macaca mulatta (rhesus) / Macaca fascicularis (cynomolgus)), sequence (P26842 other isoform, or with tags, fused parts or gaps): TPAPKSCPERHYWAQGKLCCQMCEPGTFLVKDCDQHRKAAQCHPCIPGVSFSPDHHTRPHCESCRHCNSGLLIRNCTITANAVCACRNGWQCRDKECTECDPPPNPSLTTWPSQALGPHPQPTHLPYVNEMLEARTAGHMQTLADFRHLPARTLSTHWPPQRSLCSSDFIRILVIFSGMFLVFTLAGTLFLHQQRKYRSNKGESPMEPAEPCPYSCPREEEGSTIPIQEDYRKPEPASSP
F28A, sequence (receptor chain, as listed by the source F28A F28A limits assumed): as the sequence (receptor chain, as listed by the source N88A N88A limits assumed) above, with F28A, A88N counted along it
I46A, sequence (receptor chain, as listed by the source I46A I46A limits assumed): as the sequence (receptor chain, as listed by the source N88A N88A limits assumed) above, with I46A, A88N counted along it

Take 1F5-hIgG1 (antibody): the binding, WT hCD27 = 100 (GM FITC) in assay [1] is 120%; in assay [2], 46.2%; in assay [3] it was 101%; in assay [4], 68.5%; in [5], 80%; in assay [6] it was 69.7%. Also, the binding, WT hCD27 = 100 (GM FITC) in [7] is 112%; in assay [8] it was 120%; in assay [9] it was 119%; in assay [10], 127%; in [11], 66.3%; in assay [12], 121%. The binding, WT hCD27 = 100 (GM FITC) in assay [13] was determined as 82.8%. Moreover, the pEC50 in [14] is 8.80.
